Results taken from patent publication WO2008112290A2 (dated 2008).

Target: T1, Human EphB4 (Genbank ID No. NP_004435) (human, UniProt P54760 16-987, limits assumed)
T1 construct: Detected as denatured protein on Western blot (MAb265), on tissue sections (MAb131) and by immunoprecipitation (MAb47); also called EphB4 receptor
T1 sequence: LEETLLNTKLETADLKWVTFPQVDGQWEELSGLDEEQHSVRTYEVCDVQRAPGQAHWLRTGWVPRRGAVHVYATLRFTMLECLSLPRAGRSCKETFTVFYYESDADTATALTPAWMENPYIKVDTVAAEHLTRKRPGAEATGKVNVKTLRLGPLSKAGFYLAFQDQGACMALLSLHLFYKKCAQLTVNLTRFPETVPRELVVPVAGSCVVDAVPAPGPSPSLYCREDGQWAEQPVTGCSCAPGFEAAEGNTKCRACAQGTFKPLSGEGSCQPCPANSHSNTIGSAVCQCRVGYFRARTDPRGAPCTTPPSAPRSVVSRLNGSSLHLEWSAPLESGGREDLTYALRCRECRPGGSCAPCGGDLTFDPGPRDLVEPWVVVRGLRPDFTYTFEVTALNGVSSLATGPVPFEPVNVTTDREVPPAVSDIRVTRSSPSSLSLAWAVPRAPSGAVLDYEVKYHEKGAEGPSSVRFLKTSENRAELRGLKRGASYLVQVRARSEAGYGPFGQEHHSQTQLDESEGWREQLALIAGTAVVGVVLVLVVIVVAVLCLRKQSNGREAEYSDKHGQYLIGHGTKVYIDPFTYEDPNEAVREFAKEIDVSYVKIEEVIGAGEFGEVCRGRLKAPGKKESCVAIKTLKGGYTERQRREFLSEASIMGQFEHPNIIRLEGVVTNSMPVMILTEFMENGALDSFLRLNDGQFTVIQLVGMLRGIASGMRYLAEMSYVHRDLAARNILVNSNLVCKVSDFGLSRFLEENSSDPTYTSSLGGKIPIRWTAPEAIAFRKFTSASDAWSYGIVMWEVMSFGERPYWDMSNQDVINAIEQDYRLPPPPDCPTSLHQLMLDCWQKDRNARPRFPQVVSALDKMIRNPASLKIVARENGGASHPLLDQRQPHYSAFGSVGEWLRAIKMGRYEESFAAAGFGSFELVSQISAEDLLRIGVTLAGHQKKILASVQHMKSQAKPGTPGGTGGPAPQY
Experiment: Western blot

- binding result: binds
B1: mouse monoclonal antibody 265 (antibody, V domains shown)
VH: QQSGAELARPGASVKLSCKASGYTFTSYWMQWVKQRPGQGLEWIGAIYPGDGDTRYTQKFKGKATLTADKSSSTAYMQLSTLASEDSAVYYCARVGGWLLLAYWGQGTTVT
VL: DIVMTQSPSSLAMSVGQKVTMNCKSSQSLLNSNTQKNYLAWYQQKPGHSPKLLVYLSSTRESGVPDRFIGSGSGTDFTLTISSVQAEDLADYFCQQHYTTPLTFGAGTKLELKR
notes: Mouse monoclonal from a hybridoma; also called MAb265; MAB265
